Experimental data from the RNAGym collection of RNA variant scans (doi:10.1093/molbev/msab373).

B1: Azoarcus group I ribozyme (parent)
chain: GUGCCUUGCGCCGGGAAACCACGCAAGGGAUGGUGUCAAAUUCGGCGAAACCUAAGCGCCCGCCCGGGCGUAUGGCAACGCCGAGCCAAGCUUCGGCGCCUGCGCCGAUGAAGGUGUAGAGACUAGACGGCACCCACCUAAGGCAAACGCUAUGGUGAAGGCAUAGUCCAGGGAGUGGCGAAAGUCACACAAACCGG

Variants of: B1
Assay: reverse-splicing fitness (ratio to wild type); higher = more active; in vitro selection; Mg2+ level not given
Summary of the method: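 An in vitro group I ribozyme library with randomized positions was T7-transcribed and gel-purified. In triplicate, 10 pmol RNA in EPPS pH 7.5 was reacted with 50 pmoles of a 30-nt RNA substrate for 1 h at 37 °C across several added MgCl2 levels (1–48 mM), then stopped with EDTA. Products were reverse transcribed from a substrate-complementary primer, PCR-amplified and sequenced (HiSeq 4000). Fitness is a variant's read proportion after selection over that before, normalised to wild type.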
With GUGCCUUGCGCCGGGAAACCACGCAAGGGAUGGUGUCAAAUUCGGCGAAACCUAAGCGCCCGCCCGGGCGUAUGGCAACGCGGAGCCAAGCUUCGGCGCCUGCGCCGAUGGAGGUGUAGUGACUAGACGGCACCCACCUAAGGCGAACGAUAUGGUGAAGGCAUAGUCCAGGGAGAGGCGAAAGUCACACAAACCGG the reverse-splicing fitness was 0.00897. In the case of GUGCCUUGCGCCGGGAAACCACGCAAGGGAUGGUGUCAAAUUCGGCGAAACCUAAGCGCCCGCCCGGGCGUAUGGCAACGCGGAGCCAAGCUUCGGCGCCUGCGCCGAUGGAGGUGUAGUGACUAGACGGCACCCACCUAAGGCGAACGAUAUGGUGAAGGCAUAGUCCAGGGAGCGGCGAAAGUCACACAAACCGG, the reverse-splicing fitness is reported as 0.00919. GUGCCUUGCGCCGGGAAACCACGCAAGGGAUGGUGUCAAAUUCGGCGAAACCUAAGCGCCCGCCCGGGCGUAUGGCAACGCGGAGCCAAGCUUCGGCGCCUGCGCCGAUGGAGGUGUAGUGACUAGACGGCACCCACCUAAGGCGAACGAUAUGGUGAAGGCAUAGUCCAGGGAGGGGCGAAAGUCACACAAACCGG gave a reverse-splicing fitness of 0.00391. GUGCCUUGCGCCGGGAAACCACGCAAGGGAUGGUGUCAAAUUCGGCGAAACCUAAGCGCCCGCCCGGGCGUAUGGCAACGCGGAGCCAAGCUUCGGCGCCUGCGCCGAUGGAGGUGUAGUGACUAGACGGCACCCACCUAAGGCGAACGUUAUGGUGAAGGCAUAGUCCAGGGAGUGGCGAAAGUCACACAAACCGG gave a reverse-splicing fitness of 0.0498. GUGCCUUGCGCCGGGAAACCACGCAAGGGAUGGUGUCAAAUUCGGCGAAACCUAAGCGCCCGCCCGGGCGUAUGGCAACGCGGAGCCAAGCUUCGGCGCCUGCGCCGAUGGAGGUGUAGUGACUAGACGGCACCCACCUAAGGCGAACGGUAUGGUGAAGGCAUAGUCCAGGGAGUGGCGAAAGUCACACAAACCGG gave a reverse-splicing fitness of 0.0102. GUGCCUUGCGCCGGGAAACCACGCAAGGGAUGGUGUCAAAUUCGGCGAAACCUAAGCGCCCGCCCGGGCGUAUGGCAACGCGGAGCCAAGCUUCGGCGCCUGCGCCGAUGGAGGUGUAGUGACUAGACGGCACCCACCUAAGGCGAACGGUAUGGUGAAGGCAUAGUCGAGGGAGAGGCGAAAGUCACACAAACCGG gave a reverse-splicing fitness of 0.00894. Work on GUGCCUUGCGCCGGGAAACCACGCAAGGGAUGGUGUCAAAUUCGGCGAAACCUAAGCGCCCGCCCGGGCGUAUGGCAACGCGGAGCCAAGCUUCGGCGCCUGCGCCGAUGGAGGUGUAGUGACUAGACGGCACCCACCUAAGGCGAACGGUAUGGUGAAGGCAUAGUCGAGGGAGGGGCGAAAGUCACACAAACCGG yielded a reverse-splicing fitness of 0.00372. GUGCCUUGCGCCGGGAAACCACGCAAGGGAUGGUGUCAAAUUCGGCGAAACCUAAGCGCCCGCCCGGGCGUAUGGCAACGCGGAGCCAAGCUUCGGCGCCUGCGCCGAUGGAGGUGUAGUGACUAGACGGCACCCACCUAAGGCGAACGGUAUGGUGAAGGCAUAGUCGAGGGAGCGGCGAAAGUCACACAAACCGG gave a reverse-splicing fitness of 0.00607. GUGCCUUGCGCCGGGAAACCACGCAAGGGAUGGUGUCAAAUUCGGCGAAACCUAAGCGCCCGCCCGGGCGUAUGGCAACGCGGAGCCAAGCUUCGGCGCCUGCGCCGAUGGAGGUGUAGUGACUAGACGGCACCCACCUAAGGCGAACGGUAUGGUGAAGGCAUAGUCAAGGGAGUGGCGAAAGUCACACAAACCGG gave a reverse-splicing fitness of 0.00921. Work on GUGCCUUGCGCCGGGAAACCACGCAAGGGAUGGUGUCAAAUUCGGCGAAACCUAAGCGCCCGCCCGGGCGUAUGGCAACGCGGAGCCAAGCUUCGGCGCCUGCGCCGAUGGAGGUGUAGUGACUAGACGGCACCCACCUAAGGCGAACGGUAUGGUGAAGGCAUAGUCGAGGGAGUGGCGAAAGUCACACAAACCGG yielded a reverse-splicing fitness of 0.00722. For GUGCCUUGCGCCGGGAAACCACGCAAGGGAUGGUGUCAAAUUCGGCGAAACCUAAGCGCCCGCCCGGGCGUAUGGCAACGCGGAGCCAAGCUUCGGCGCCUGCGCCGAUGGAGGUGUAGUGACUAGACGGCACCCACCUAAGGCGAACGGUAUGGUGAAGGCAUAGUCUAGGGAGUGGCGAAAGUCACACAAACCGG, the reverse-splicing fitness was 0.00737. GUGCCUUGCGCCGGGAAACCACGCAAGGGAUGGUGUCAAAUUCGGCGAAACCUAAGCGCCCGCCCGGGCGUAUGGCAACGCGGAGCCAAGCUUCGGCGCCUGCGCCGAUGGAGGUGUAGUGACUAGACGGCACCCACCUAAGGCGAACGGUAUGGUGAAGGCAUAGUCUAGGGAGCGGCGAAAGUCACACAAACCGG gave a reverse-splicing fitness of 0.009. GUGCCUUGCGCCGGGAAACCACGCAAGGGAUGGUGUCAAAUUCGGCGAAACCUAAGCGCCCGCCCGGGCGUAUGGCAACGCGGAGCCAAGCUUCGGCGCCUGCGCCGAUGGAGGUGUAGUGACUAGACGGCACCCACCUAAGGCGAACGGUAUGGUGAAGGCAUAGUCUAGGGAGAGGCGAAAGUCACACAAACCGG gave a reverse-splicing fitness of 0.00708. For GUGCCUUGCGCCGGGAAACCACGCAAGGGAUGGUGUCAAAUUCGGCGAAACCUAAGCGCCCGCCCGGGCGUAUGGCAACGCGGAGCCAAGCUUCGGCGCCUGCGCCGAUGGAGGUGUAGUGACUAGACGGCACCCACCUAAGGCGAACGGUAUGGUGAAGGCAUAGUCUAGGGAGGGGCGAAAGUCACACAAACCGG, the reverse-splicing fitness was 0.00375. For GUGCCUUGCGCCGGGAAACCACGCAAGGGAUGGUGUCAAAUUCGGCGAAACCUAAGCGCCCGCCCGGGCGUAUGGCAACGCGGAGCCAAGCUUCGGCGCCUGCGCCGAUGGAGGUGUAGUGACUAGACGGCACCCACCUAAGGCGAACGUUAUGGUGAAGGCAUAGUCAAGGGAGUGGCGAAAGUCACACAAACCGG, the reverse-splicing fitness was 0.00681. With GUGCCUUGCGCCGGGAAACCACGCAAGGGAUGGUGUCAAAUUCGGCGAAACCUAAGCGCCCGCCCGGGCGUAUGGCAACGCGGAGCCAAGCUUCGGCGCCUGCGCCGAUGGAGGUGUAGUGACUAGACGGCACCCACCUAAGGCGAACGAUAUGGUGAAGGCAUAGUCUAGGGAGUGGCGAAAGUCACACAAACCGG the reverse-splicing fitness was 0.00426. In the case of GUGCCUUGCGCCGGGAAACCACGCAAGGGAUGGUGUCAAAUUCGGCGAAACCUAAGCGCCCGCCCGGGCGUAUGGCAACGCGGAGCCAAGCUUCGGCGCCUGCGCCGAUGGAGGUGUAGUGACUAGACGGCACCCACCUAAGGCGAACGAUAUGGUGAAGGCAUAGUCGAGGGAGUGGCGAAAGUCACACAAACCGG, the reverse-splicing fitness is reported as 0.00639. For GUGCCUUGCGCCGGGAAACCACGCAAGGGAUGGUGUCAAAUUCGGCGAAACCUAAGCGCCCGCCCGGGCGUAUGGCAACGCGGAGCCAAGCUUCGGCGCCUGCGCCGAUGGAGGUGUAGUGACUAGACGGCACCCACCUAAGGCGAACGGUAUGGUGAAGGCAUAGUCAAGGGAGAGGCGAAAGUCACACAAACCGG, the reverse-splicing fitness was 0.0115. Work on GUGCCUUGCGCCGGGAAACCACGCAAGGGAUGGUGUCAAAUUCGGCGAAACCUAAGCGCCCGCCCGGGCGUAUGGCAACGCGGAGCCAAGCUUCGGCGCCUGCGCCGAUGGAGGUGUAGUGACUAGACGGCACCCACCUAAGGCGAACGGUAUGGUGAAGGCAUAGUCAAGGGAGGGGCGAAAGUCACACAAACCGG yielded a reverse-splicing fitness of 0.00448. With GUGCCUUGCGCCGGGAAACCACGCAAGGGAUGGUGUCAAAUUCGGCGAAACCUAAGCGCCCGCCCGGGCGUAUGGCAACGCGGAGCCAAGCUUCGGCGCCUGCGCCGAUGGAGGUGUAGUGACUAGACGGCACCCACCUAAGGCGAACGGUAUGGUGAAGGCAUAGUCAAGGGAGCGGCGAAAGUCACACAAACCGG the reverse-splicing fitness was 0.0099. Work on GUGCCUUGCGCCGGGAAACCACGCAAGGGAUGGUGUCAAAUUCGGCGAAACCUAAGCGCCCGCCCGGGCGUAUGGCAACGCGGAGCCAAGCUUCGGCGCCUGCGCCGAUGGAGGUGUAGUGACUAGACGGCACCCACCUAAGGCGAACGGUAUGGUGAAGGCAUAGUCCAGGGAGGGGCGAAAGUCACACAAACCGG yielded a reverse-splicing fitness of 0.00375. With GUGCCUUGCGCCGGGAAACCACGCAAGGGAUGGUGUCAAAUUCGGCGAAACCUAAGCGCCCGCCCGGGCGUAUGGCAACGCGGAGCCAAGCUUCGGCGCCUGCGCCGAUGGAGGUGUAGUGACUAGACGGCACCCACCUAAGGCGAACGGUAUGGUGAAGGCAUAGUCCAGGGAGAGGCGAAAGUCACACAAACCGG the reverse-splicing fitness was 0.00561. GUGCCUUGCGCCGGGAAACCACGCAAGGGAUGGUGUCAAAUUCGGCGAAACCUAAGCGCCCGCCCGGGCGUAUGGCAACGCGGAGCCAAGCUUCGGCGCCUGCGCCGAUGGAGGUGUAGUGACUAGACGGCACCCACCUAAGGCGAACGGUAUGGUGAAGGCAUAGUCCAGGGAGCGGCGAAAGUCACACAAACCGG gave a reverse-splicing fitness of 0.00834. GUGCCUUGCGCCGGGAAACCACGCAAGGGAUGGUGUCAAAUUCGGCGAAACCUAAGCGCCCGCCCGGGCGUAUGGCAACGCGGAGCCAAGCUUCGGCGCCUGCGCCGAUGGAGGUGUAGUGACUAGACGGCACCCACCUAAGGCGAACGAUAUGGUGAAGGCAUAGUCAAGGGAGGGGCGAAAGUCACACAAACCGG showed a reverse-splicing fitness of 0.00251. Work on GUGCCUUGCGCCGGGAAACCACGCAAGGGAUGGUGUCAAAUUCGGCGAAACCUAAGCGCCCGCCCGGGCGUAUGGCAACGCGGAGCCAAGCUUCGGCGCCUGCGCCGAUGGAGGUGUAGUGACUAGACGGCACCCACCUAAGGCGAACGAUAUGGUGAAGGCAUAGUCUAGGGAGGGGCGAAAGUCACACAAACCGG yielded a reverse-splicing fitness of 0.00259. GUGCCUUGCGCCGGGAAACCACGCAAGGGAUGGUGUCAAAUUCGGCGAAACCUAAGCGCCCGCCCGGGCGUAUGGCAACGCGGAGCCAAGCUUCGGCGCCUGCGCCGAUGGAGGUGUAGUGACUAGACGGCACCCACCUAAGGCGAACGAUAUGGUGAAGGCAUAGUCUAGGGAGAGGCGAAAGUCACACAAACCGG showed a reverse-splicing fitness of 0.00563. GUGCCUUGCGCCGGGAAACCACGCAAGGGAUGGUGUCAAAUUCGGCGAAACCUAAGCGCCCGCCCGGGCGUAUGGCAACGCGGAGCCAAGCUUCGGCGCCUGCGCCGAUGGAGGUGUAGUGACUAGACGGCACCCACCUAAGGCGAACGAUAUGGUGAAGGCAUAGUCUAGGGAGCGGCGAAAGUCACACAAACCGG gave a reverse-splicing fitness of 0.00452. For GUGCCUUGCGCCGGGAAACCACGCAAGGGAUGGUGUCAAAUUCGGCGAAACCUAAGCGCCCGCCCGGGCGUAUGGCAACGCGGAGCCAAGCUUCGGCGCCUGCGCCGAUGGAGGUGUAGUGACUAGACGGCACCCACCUAAGGCGAACGAUAUGGUGAAGGCAUAGUCGAGGGAGAGGCGAAAGUCACACAAACCGG, the reverse-splicing fitness was 0.0128. GUGCCUUGCGCCGGGAAACCACGCAAGGGAUGGUGUCAAAUUCGGCGAAACCUAAGCGCCCGCCCGGGCGUAUGGCAACGCGGAGCCAAGCUUCGGCGCCUGCGCCGAUGGAGGUGUAGUGACUAGACGGCACCCACCUAAGGCGAACGAUAUGGUGAAGGCAUAGUCGAGGGAGCGGCGAAAGUCACACAAACCGG showed a reverse-splicing fitness of 0.00625. For GUGCCUUGCGCCGGGAAACCACGCAAGGGAUGGUGUCAAAUUCGGCGAAACCUAAGCGCCCGCCCGGGCGUAUGGCAACGCGGAGCCAAGCUUCGGCGCCUGCGCCGAUGGAGGUGUAGUGACUAGACGGCACCCACCUAAGGCGAACGAUAUGGUGAAGGCAUAGUCGAGGGAGGGGCGAAAGUCACACAAACCGG, the reverse-splicing fitness was 0.00219.
